# T1: human B7-H3-4Ig on CHO-S cells (CHO-S-human B7-H3-4Ig) (human, UniProt Q5ZPR3 29-534)
# T1 sequence (looked up): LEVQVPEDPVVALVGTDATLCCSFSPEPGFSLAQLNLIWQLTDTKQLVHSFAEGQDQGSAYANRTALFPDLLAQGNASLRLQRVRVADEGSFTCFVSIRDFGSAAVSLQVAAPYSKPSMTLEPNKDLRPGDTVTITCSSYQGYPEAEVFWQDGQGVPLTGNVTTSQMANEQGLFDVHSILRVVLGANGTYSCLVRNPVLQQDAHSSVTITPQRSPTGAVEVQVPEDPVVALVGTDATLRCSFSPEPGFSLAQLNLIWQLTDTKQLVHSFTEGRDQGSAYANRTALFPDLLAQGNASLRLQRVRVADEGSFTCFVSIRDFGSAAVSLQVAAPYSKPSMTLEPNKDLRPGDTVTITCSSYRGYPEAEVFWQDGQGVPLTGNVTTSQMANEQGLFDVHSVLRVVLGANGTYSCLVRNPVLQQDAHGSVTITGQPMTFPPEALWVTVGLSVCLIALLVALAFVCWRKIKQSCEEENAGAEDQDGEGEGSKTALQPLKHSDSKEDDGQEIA
# T2: human B7-H3 on human tumor cells (MCF-7, HT29, NCI-N87, HCC1806, HCC827) (human, UniProt Q5ZPR3 29-534)
# T2 sequence (looked up): T1 sequence (looked up)
# T3: human B7-1-his (human, UniProt P33681 35-242)
# T3 construct: Bought protein; not shown: his tag
# T3 sequence (looked up): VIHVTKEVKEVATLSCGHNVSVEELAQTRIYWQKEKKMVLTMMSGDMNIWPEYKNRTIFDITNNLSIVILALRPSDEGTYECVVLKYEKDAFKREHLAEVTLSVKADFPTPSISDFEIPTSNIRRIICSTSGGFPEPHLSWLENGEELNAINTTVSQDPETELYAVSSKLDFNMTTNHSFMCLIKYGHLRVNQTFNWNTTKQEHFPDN
# T4: human B7-H3-4Ig-His protein (human, UniProt Q5ZPR3 29-466)
# T4 construct: extracellular domain; Made in HEK293-EBNA cells
# T4 sequence: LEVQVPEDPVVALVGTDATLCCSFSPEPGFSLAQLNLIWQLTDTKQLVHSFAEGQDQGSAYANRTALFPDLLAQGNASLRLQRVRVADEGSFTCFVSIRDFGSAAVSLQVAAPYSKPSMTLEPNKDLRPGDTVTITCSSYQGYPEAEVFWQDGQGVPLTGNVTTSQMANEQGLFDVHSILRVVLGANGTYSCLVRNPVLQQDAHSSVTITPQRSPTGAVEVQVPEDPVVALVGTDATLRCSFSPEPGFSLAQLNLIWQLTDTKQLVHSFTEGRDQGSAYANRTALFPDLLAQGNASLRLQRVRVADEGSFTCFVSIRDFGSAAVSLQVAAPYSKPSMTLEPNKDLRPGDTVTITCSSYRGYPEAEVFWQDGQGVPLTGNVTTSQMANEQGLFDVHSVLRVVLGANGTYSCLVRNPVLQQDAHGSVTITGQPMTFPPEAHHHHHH
# T5: monkey B7-H3-4Ig-His protein (monkey)
# T5 chain: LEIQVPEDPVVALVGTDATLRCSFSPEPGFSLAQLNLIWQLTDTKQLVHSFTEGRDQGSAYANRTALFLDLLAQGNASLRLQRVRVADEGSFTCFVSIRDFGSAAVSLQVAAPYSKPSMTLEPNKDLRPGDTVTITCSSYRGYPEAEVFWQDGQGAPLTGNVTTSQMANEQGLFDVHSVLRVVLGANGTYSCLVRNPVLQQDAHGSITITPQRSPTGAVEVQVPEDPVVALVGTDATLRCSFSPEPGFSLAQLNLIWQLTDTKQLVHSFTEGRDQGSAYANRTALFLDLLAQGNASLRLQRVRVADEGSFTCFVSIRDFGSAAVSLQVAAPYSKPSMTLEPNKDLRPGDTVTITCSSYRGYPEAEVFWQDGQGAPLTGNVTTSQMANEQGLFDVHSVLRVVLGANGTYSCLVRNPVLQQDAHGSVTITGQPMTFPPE
# T6: human B7-H3-2Ig-His protein (human)
# T6 chain: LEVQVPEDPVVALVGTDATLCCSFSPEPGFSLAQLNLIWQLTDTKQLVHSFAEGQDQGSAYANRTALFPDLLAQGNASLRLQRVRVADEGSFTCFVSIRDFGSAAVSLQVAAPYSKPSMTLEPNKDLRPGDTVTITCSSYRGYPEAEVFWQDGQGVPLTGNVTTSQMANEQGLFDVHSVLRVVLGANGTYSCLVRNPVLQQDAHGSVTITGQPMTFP
# T7: human B7-H4-hFc (human, UniProt Q7Z7D3 25-259)
# T7 construct: Bought protein; not shown: hFc
# T7 sequence (looked up): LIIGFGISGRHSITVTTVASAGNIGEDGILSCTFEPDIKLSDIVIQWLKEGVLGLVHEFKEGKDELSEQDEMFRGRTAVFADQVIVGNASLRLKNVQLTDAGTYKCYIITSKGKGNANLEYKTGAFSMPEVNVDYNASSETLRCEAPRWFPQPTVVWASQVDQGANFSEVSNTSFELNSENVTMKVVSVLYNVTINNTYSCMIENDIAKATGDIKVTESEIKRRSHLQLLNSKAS
# B1: anti-human-B7-H3 human antibody 2#8890 (antibody, human IgG1, kappa, V domains shown)
# VH: QVQLQESGPGLVQPSGTLSLTCAVSGGSDSSTNWWTWVRQSPGQGLEWIGEISPIGFTSYSPSLRSRVTISVDKSKTQFSLKLSSVTAADTAVYYCARDRLYFAFWGQGTLVTVSS
# VL: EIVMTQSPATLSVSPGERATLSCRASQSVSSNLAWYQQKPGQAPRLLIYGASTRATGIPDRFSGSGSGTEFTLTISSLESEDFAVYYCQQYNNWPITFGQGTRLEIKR
# Key:
# [1] = biological target: T1, human B7-H3-4Ig on CHO-S cells …; assay: cell-based or functional assay
# [2] = biological target: T2, human B7-H3 on human tumor cells …; assay: cell-based or functional assay
# [3] = biological target: T2, human B7-H3 on human tumor cells …; assay: flow cytometry on NCI-N87 cells
# [4] = biological target: T3, human B7-1-his; assay: ELISA, antigen coated at 1 ug/ml
# [5] = biological target: T8, monkey B7-H3 on CHO-S cells (CHO-S-monkey B7-H3) (monkey); assay: flow cytometry on CHO-S-monkey B7-H3 cells
# T8 construct: whole, on cells; also called monkey B7-H3-overexpressed cells
# [6] = biological target: T4, human B7-H3-4Ig-His protein; assay: ELISA, antigen coated at 1 ug/ml (specificity panel)
# [7] = biological target: T5, monkey B7-H3-4Ig-His protein; assay: BLI (ForteBio), antibody captured on Protein A sensor, 1:1 global fit
# [8] = biological target: T6, human B7-H3-2Ig-His protein; assay: as above
# [9] = biological target: T4, human B7-H3-4Ig-His protein; assay: as above
# [10] = biological target: T9, human B7-H1-mFc (human, UniProt Q9NZQ7 19-238); assay: ELISA, antigen coated at 1 ug/ml, 2#8890-biotin detected with streptavidin-peroxidase
# T9 construct: Self-constructed; not shown: mFc
# [11] = biological target: T7, human B7-H4-hFc; assay: as above
# T9 sequence (Q9NZQ7 19-238): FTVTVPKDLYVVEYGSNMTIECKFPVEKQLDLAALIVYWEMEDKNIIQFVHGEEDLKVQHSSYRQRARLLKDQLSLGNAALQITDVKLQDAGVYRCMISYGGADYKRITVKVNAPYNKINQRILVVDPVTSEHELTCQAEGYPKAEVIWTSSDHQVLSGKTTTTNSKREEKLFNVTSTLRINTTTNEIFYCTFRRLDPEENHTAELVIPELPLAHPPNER
binder,measurement,setting,value
B1,CDC: EC50 of killing of target cell CHO-S-B7-H3-4Ig with 10% guinea pig serum complement,[1],2.92 µg/mL
same,"Endocytosis EC50 on HCC827 cells (PHrodo, flow cytometry)",[2],0.0102 µg/mL
same,"Endocytosis EC50 on HCC1806 cells (PHrodo, flow cytometry)",[2],0.0206 µg/mL
same,"Endocytosis EC50 on NCI-N87 cells (PHrodo, flow cytometry)",[2],0.0122 µg/mL
same,EC50,[3],0.00577 µg/mL
same,binding result,[4],no binding (tested: 10 ug/ml highest concentration)
same,EC50,[5],0.0649 µg/mL
same,EC50,[6],0.00193 µg/mL
same,Kd,[7],1.24 nM
same,Kd,[8],18.3 nM
same,Kd,[9],0.783 nM
same,binding result,[10],no binding (tested: 10 ug/ml highest concentration)
same,binding result,[11],no binding (tested: 10 ug/ml highest concentration)

# Source: patent EP4596582A1 (Sichuan Kelun-Biotech Biopharmaceutical Co., Ltd., dated 2025)
